Paper doi:10.1101/2022.01.24.477625 (bioRxiv, 2022)

Molecular target: SARS-CoV-1 spike protein (FL-GCN4-Avi-His, biotinylated) (SARS-CoV-1 (SARS-CoV), strain , UniProt P59594, stabilised, biotin on the Avi tag)
Experiment: BLI

B1: CV27 IgG (antibody, V domains shown)
VH: QVQLVESGGGVVQPGRSLRLSCAASGFTFSSYAMHWVRQAPGKGLEWVALISYDGSNKYYADSVKGRFTISRDNSKNTLYLQMNSLRAEDTAVYYCARSFGGSYYYGMDVWGQGTTVTVSS
VL: QSALTQPASVSGSPGQSITISCTGTSSDVGGYNYVSWYQQHPGKAPKLMIYDVSNRPSGVSNRFSGSKSGNTASLTISGLQAEDEADYYCSSYTSSSTPYVFGTGTKVTVL
  binding result: binds
